A short description of this series: protein stability index of a GFP-peptide fusion (GPS, HEK-293T) (PSI 1-6); higher = more stable.
The mark [1] stands for this setting: parent: IOH13764_23, c terminus: a fixed tail appended.
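Also: lentivirally expressed fusions sorted by FACS into six bins by GFP to DsRed ratio, PSI derived from sequencing read proportions per bin multiplied by bin number.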

Regarding YNPHPGFPELGYSYGGGSASSQHS, the protein stability index (parent: IOH21682_92, c terminus: a fixed tail appended) is 2.58.
Take RTFGPPPSLSPGAFSYSSSSRFSS: the protein stability index (parent: IOH21924_4, c terminus: a fixed tail appended) was 3.3.
As for FFIRTSDSFDKFDFCEPSFVTGNC [PCMTD2 WT], the protein stability index (parent: IOH21782_22, c terminus: a fixed tail appended) was found to be 2.15.
As to FCADNPSELPPPMERTGGIGDSRP, under “parent: IOH21682_16, c terminus: a fixed tail appended”, the protein stability index came out at 4.54.
Take YYPSGDAFASGSDDATCRLYDLRA: the protein stability index (parent: IOH14466_42, c terminus: a fixed tail appended) stood at 2.4.
In the case of VYYIFERLCAPLFRNIKQEPFSAR, the protein stability index (parent: IOH22371_57, c terminus: a fixed tail appended) amounted to 2.19.
KKVLNHGYDDDNHDYIVRSGERWL: the protein stability index (parent: IOH14793_15, c terminus: a fixed tail appended) was 2.93.
For the protein LLTITKAHSNAISNCCFTFSGHFL [WDR88 WT], for the setting “parent: IOH21600_45, c terminus: a fixed tail appended”, the protein stability index is 3.1.
On to YGSIHGPTDYQVNIQIIEYEKKQT, for which the protein stability index (parent: IOH21551_62, c terminus: a fixed tail appended) stood at 2.54.
Regarding DLSAANEKNLLLQNQVDELERKFR, the protein stability index (parent: IOH13594_61, c terminus: a fixed tail appended) was 4.05.
As to NIYYYLEDDSMSVIEPVVENSGIL [EFHC1 WT], the protein stability index (parent: IOH14055_21, c terminus: a fixed tail appended) is 2.15.
As for DEIEFLKKLHEEELRDLQVSVESQ, the protein stability index (parent: IOH21924_38, c terminus: a fixed tail appended) is 4.78.
With FLDERLYCESHAKARVKPPEGYDV [PDLIM4 WT], where the note is “parent: IOH13881_50, c terminus: a fixed tail appended”, the protein stability index was determined as 1.92.
As to IVGFGLYGSIHGPTDYQVNIQIIE, the protein stability index (parent: IOH21551_61, c terminus: a fixed tail appended) is 3.17.
Turning to RKCPVHGKTMELFCQTDQTCICYL, the protein stability index (parent: IOH13948_38, c terminus: a fixed tail appended) is 2.05.
Turning to FPELGYSYGGGSASSQHSEGSRSS, the protein stability index (parent: IOH21682_93, c terminus: a fixed tail appended) was found to be 3.14.
Consider EGCGPPLRRWLRANLAASGGYAIA [TSPAN10 WT], for which the protein stability index (parent: IOH21852_47, c terminus: a fixed tail appended) was 1.89.
As to HPDPAPFCADNPSELPPPMERTGG, the protein stability index (parent: IOH21682_15, c terminus: a fixed tail appended) was 2.73.
RSEFTLMAKRIGKDLSNTFAKLEK: the protein stability index (parent: IOH14584_7, c terminus: a fixed tail appended) came to 2.17.
As for ENLFTGEDLDELEEELNTLDLEE, the protein stability index (parent: IOH14032_69, c terminus: native) turned out to be 4.42.
Consider VHTGCHKKLGPEARRPRTRWGKN, for which the protein stability index (parent: IOH21711_9, c terminus: native) worked out at 1.97.
YQGPGTRRLQEVLGVQTGGPGGRR: the protein stability index (parent: IOH14793_62, c terminus: a fixed tail appended) amounted to 3.2.
In the case of PSNGRIDIKQLIAKKIKLTAEAEE, for the setting “parent: IOH22371_7, c terminus: a fixed tail appended”, the protein stability index came out at 3.15.
Turning to EPAGSLRELGVWRSLLRLRATRAG, for the setting “parent: IOH21460_10, c terminus: a fixed tail appended”, the protein stability index is 2.6.
As to ESTIVELGSIFQQLAHMVKEQEET, the protein stability index (parent: IOH14584_38, c terminus: a fixed tail appended) stood at 2.04.
As for WTVANMEEIKKLTTDPDLILEVLR [LARP4 WT], where the note is “parent: IOH13489_15, c terminus: a fixed tail appended”, the protein stability index came to 2.1.
As for AFLELPHGSGGSGYPAAPPAVPFA [TBX6 WT], the protein stability index (parent: IOH14639_65, c terminus: a fixed tail appended) was found to be 2.31.
Regarding AKAADSPTRNDLESGLGHFSLRVH, the protein stability index (parent: IOH21711_5, c terminus: a fixed tail appended) came to 3.12.
DINSVRYYPSGDAFASGSDDATCR: the protein stability index (parent: IOH14466_41, c terminus: a fixed tail appended) stood at 3.92.
For the protein FPSDHLGDLGDPFHLGLEDILMEE, the protein stability index (parent: IOH14020_85, c terminus: a fixed tail appended) turned out to be 3.43.
With SDVVDWLYHNVEGFTDRREARKYA, the protein stability index (parent: IOH21682_75, c terminus: a fixed tail appended) turned out to be 2.98.
Regarding AVPTDEARAFAEKNGLSFIETSAL, under setting [1], the protein stability index amounted to 2.34.
In the case of TSAEIELPDVEPAAFLALLRFLYS, the protein stability index (parent: IOH21551_20, c terminus: a fixed tail appended) stood at 2.
RKADFKAGKALVISGREVFEFRPE: the protein stability index (parent: IOH14032_47, c terminus: a fixed tail appended) amounted to 2.82.
With FVENGHSESSGQTHLEGDTVQIIC [CFHR2 WT], under “parent: IOH13657_16, c terminus: a fixed tail appended”, the protein stability index is 2.78.
LTLKVLRSSSCGDTELLGQATLPV: the protein stability index (parent: IOH21460_59, c terminus: a fixed tail appended) came to 2.3.
Take ELPNIKREISETEAKALLKERQKK: the protein stability index (parent: IOH14020_55, c terminus: a fixed tail appended) was 2.4.
Take RFQDLVLRMLEYEPAARISPLGAL: the protein stability index (parent: IOH14793_68, c terminus: a fixed tail appended) was found to be 2.31.
Take PSNRSFFSEIISSISDVKFSHSGR: the protein stability index (parent: IOH22211_46, c terminus: a fixed tail appended) turned out to be 2.33.
As for FHLGLEDILMEEEEGVVGGLSGGA, the protein stability index (parent: IOH14020_87, c terminus: a fixed tail appended) is 3.6.
On to FAEKGELRKSIFSESRKPTVSIME, for which the protein stability index (parent: IOH13948_21, c terminus: a fixed tail appended) amounted to 2.01.
In the case of FWHDTLTEQLWRIFAGVHDEKAKP [TLE6 WT], the protein stability index (parent: IOH13956_6, c terminus: a fixed tail appended) stood at 1.76.
On to ARKYFERLPGGGWTLRRTKELRKD, for which the protein stability index (parent: IOH14793_58, c terminus: a fixed tail appended) was 3.49.
In the case of RNTKRDVTLEASRENSKPRAILKP, the protein stability index (parent: IOH22211_62, c terminus: a fixed tail appended) was determined as 4.59.
Take FQTRQEMTSMSAELKMRAIQAEER: the protein stability index (parent: IOH13594_66, c terminus: a fixed tail appended) stood at 4.
YFKCVQKDIQPYMRRMVATWMLEV [CCND2 WT]: the protein stability index (parent: IOH13739_8, c terminus: a fixed tail appended) was 2.47.
As to YQRVLPLPIFTPAKMGATKEERED [TCAP WT], the protein stability index (parent: IOH13813_15, c terminus: a fixed tail appended) turned out to be 2.04.
For FVLGKGRGAAAAGGPQRIPAHRFV, where the note is “parent: IOH21551_13, c terminus: a fixed tail appended”, the protein stability index worked out at 1.88.
Consider AVPTDEARAFAEKNNLSFIETSAL, for which the protein stability index under setting [1] was determined as 2.72.
With GVLILFLTFFAFLHCWLNAFAEML, the protein stability index (parent: IOH22371_63, c terminus: a fixed tail appended) is 2.73.
Regarding FIGEESVAAGEKSILTDNPTWIID [IMPA1 WT], under “parent: IOH21098_12, c terminus: a fixed tail appended”, the protein stability index was determined as 2.05.
Regarding FEDEVKRLGWQQQAELQELEERLQ [KIAA0774 WT], where the note is “parent: IOH21722_11, c terminus: a fixed tail appended”, the protein stability index was determined as 4.08.
As to QEAKLLHWNGRHKPWDFPSVHNDL [GLT8D2 WT], where the note is “parent: IOH13397_52, c terminus: a fixed tail appended”, the protein stability index was 2.77.

The values are drawn from the supplement of paper PMC10567573.
